Assay: label from the status in PepcDB records

For “MIDGNSIIVSSPEVAFPIAVRYAWADNPICNLYNGVNLPASPFRTDDWQGILMVINRYSCFDLPSEIDVTHKKITMNKLIYLVIFSFLSTSIYAQMKDLVQYVNTLQGTDSHFGLSYGNTYPTTGMPYAMHTWSAQTGKNGEGWKYQYAVDNIRGFCQSHQCSPWMSDYAVYSFMPMVGKLVVNQEMRATKFSHDNEIAKPHYYKVMLDNGITTEMAPTTRGVHLRFSYPSTEDAYLVIDGYTDMSEIKIDPAKRQISGWVNNQRFVNNSKTFRSYFVVQFDKAFEDYGMWENQKDEIYPKKLEGEGKGYGAYIKFKKGSKVQAKAASSYISAEQAVITLNDELGKDKNLEATKIRGHKTWNELLNRIQVEGGTDEQMKTFYSCLFRANLFSRKFYERKANGEPYYYSPYDGKVYDGYMYTDNGFWDTFRSQFPLTNILHPTMQGRYMNALLAAQEQCGWLPSWSAPGETGGMLGNHSISLLADAWAKGIRTFDPEKALKAYAHEAMNKGPWGGANGRGFWKEYFELGYVPYPESMGSSAQTMEYAYDDFCGYQLAKMTGNKHYQEVFARQMYNYKNVFDPSIGFMRGKGVDGKWQEPFDPLEWGGPFCEGNAWHYTWSVFHDVEGLIDLFGSDQRFTTKMDSVFTLPSTIKPGTYGGVIHEMKEMELSGMGQYAHGNQPIQHMPYLYSYAGQPWKTQYWVRQIVERLYNSTERGYPGDEDQGGMSSWYILSSLGIYAVCPGTDEYVIGSPLFKKATITMENGNKFVIEANNNSKENLYIQSATLNGRVLDKNFIRYDDIADGGIIRFEMGSQPNKERCTSKYAAPFSLSKE”, the protein production was “failed”.

In the case of “MGHHHHHHSHMKPSGEDQAALAAGPWEECFQAAVQLALRAGQIIRKALTEEKRVSTKTSAADLVTETDHLVEDLIISELRERFPSHRFIAEEAAASGAKCVLTHSPTWIIDPIDGTCNFVHRFPTVAVSIGFAVRQELEFGVIYHCTEERLYTGRRGRGAFCNGQRLRVSGETDLSKALVLTEIGPKRDPATLKLFLSNMERLLHAKAHGVRVIGSSTLALCHLASGAADAYYQFGLHCWDLAAATVIIREAGGIVIDTSGGPLDLMACRVVAASTREMAMLIAQALQTINYGRDDEK”, the protein production was “failed”.

In the case of “PGYTLTRELPLTEYRALYRAAEDTWAARLDWSPEQYDAHFAREDVRLLALRDSEGRPVAFAELELCAPDSRAELTHLAVHPAQRGQGLGRALLALAAAEAAQSPEIRTLRARAHDHMSAARQLYARAGLSHCRAVVTSLREG”, the protein production was “failed”.

In the case of “MSLARPLSFHEDRLFPSDPATRSYARGLYALVKDLPIISPHGHTDPSWFATNAPFQDATDLLLAPDHYLFRMLYSQGVSLDALKVRSKAGVPDTDPREAWRVFASHFYLFRGTPSWVWLNHVFSQVFGFTEFLEASNADDYFDRITAALATDAFRPRALFDRFNIETLATTEGPHESLQHHAAIRESGWGGHVITAYRPDAVIDFEDERSPRAFERFAETSGQDVYSWKSYLEAHRLRRQAFIDAGATSSDHGHPTAATADLSDVEAEALFNSLVKGDVTPEKAELFRAQMLTEMAKMSLDDGLVMQIHPGSHRNHNVGLLNSHGRDKGADIPMRTEYVDALKPLLTRLGNDPRLSIILFTLDETTYSRELAPLAGHYPVLKLGPSWWFHDSPEGMMRFREQVTETAGFYNTVGFNDDTRAFLSIPARHDVARRVDSAFLARMVAEHRMDLVEAEELIVDLTYNLPKKAYKLDQRPDWARPATLRAAAEEGHHHHHH”, the protein production was “not failed”.

For “MTTDNPLISIYMPTWNRQQLAIRAIKSVLRQDYRHWEMIIVDDCSSSYQQLQQFVEELNDPRVRYTHNARNTGACAVRNQAIMQAQGHYITGIDDDDEWTPNRLSVFLAHKHQLTTHAFLYANDYVCEGEVYSQPASLPLYPKSPYSRRLFYKRNIIGNQVFTWAWRFKASLFDTELKAAQDYDIFLRMVVEYGEPWKVEEATQILHINHGEMQITSSPKKFSGYFHFYRKHKDKFDRASKKYQLFTLYQIRNKRMTWRTLLTLLSVRNSKRLAAGLRGR”, the protein production was “failed”.

In the case of “MVRGDDQLNGLQGGKRALDILCVATERTVSAFAYEEIGETSTEGDKRRERLRRLRRLINYSLSTTMNSSLSKRLKIDECKNQDPEQNPNRVASSPSSCHLESKRPQKVVSNKPVRNRKPVIVTDEDRTPTEWLIDVMREVNGMDAKLIFVKVLPNSDVDELQTRLMMPWKQILDMDFLNEEELEKIDRHHKKISASDKGADVIVVNSKGLQRKLKLKRWDMTSTSNYVLGLGWNKVVTDNILQRGTRLRIWSFHSPDMLFFAFVLSDPDPAPTECLNLLAKLCEETTCLEALQEANRMSSLVSDTELDLELRL”, the protein production was “failed”.

With “MIKLIVSDLDETLVGPDGNVSEENIEAIKKATQKGVKFVPNTGRGFESVQPLLETLGLKGKANEFVISYNGGVIVENQNFDVIQANAFSFEQATQIFDITKQHLENSTHIYTLNDVYVFNEVEEDNEYIRSRGVRTIRFEHDNLDTLKDEPIFKIITMNPDFNKRKQIKAEVLDKVNFDVNATFSSDRYTEFNLKGVDKGQASLELGRHLGIKADEIMALGDNNNDVAMLKSVGLPVVVSNASASAKANAKYIAKGNYETGVAEAINKFVLGE” the protein production was “failed”.

In the case of “MSYNNSYDVIILAGGLSKRFGADKCCFEVNSKTMLDRLLEQFDNPIVVSRSPRRIKKGILVIEKGEYEGPVKGVREGLKYVRRDRVFITGCDFPFLIKNLVDYVCSKPYDIVIPFDHRPQPLLACYSTELLNKNIDKINGLVELIELSSSVYFIGTEELLKIDPFLYSLININSIIDLIYRPIRIKTKSNFILRLEHHHHHH”, the protein production was “failed”.

With “MYIVNSNKSRGSSVERYIVSRLRDKGFAVIRAPASGSKRKDHVPDIIALKSGVIILIEVKSRKNGQKIYIEKEQAEGIREFAKRSGGELFLGVKLPKMLRFIKFDMLRQTEGGNYAIDLETVEKGMELEDLVRYVESKISRTLDSFL” the protein production was “not failed”.

For “MPNHQPVKKFKIIGGACKGLGLNLPNISSTRPTKAIVRESFFNTLQAEINGAHFIEVFSGSASMGLEALSRGAKSAVFFEQNKSAYKTLLENISLFKNRLKKEMEIQTFLDDAFKLLPTLCLKNGVLNIIYLDPPFETSGFLGIYEKCFQALERLLKRFNPKNLLVVFEHESMHEMPKSLVTLAIIKQKKFGKTTLTYFQ”, the protein production was “failed”.

With “MKIAILCASGKVGKEISKEALKRNLEPVCFVRNSSKMNEFLPQAKIVQRDLFELDSKDLIDFDIIIDAFGEWENLSLHKKHIECLSVILQGSKAKLFVVGGAGSLYMDENHTTRLMDMPDFPKEYLDIAKASAEVLEFLRNEKGFKWVYVSPSAIFSPDLPKSNHYKIIGEKFEVNANNESKISYSDYASAMIDIVLNSCYENTRIGVISL” the protein production was “failed”.

For “MKKRILAVAVTSMLLSASVFAQETVVPSRVGDLKFESDFPTQETMKNMLNEMDFQRATQAYLWGIPASSIMEWLNVSRNDFKFEEGQMGFFNTLKQKQGIITANFTTPYVIGTWNLEKTGPLIINLPEAKMAGMMLDVHQRVLSDLSLLGPDKGKGGKYLIVPPGEKYKDLNPKGYYVIRPKTNVVYGGIRILEPDVDRVVKQVVPNITTQPYADGKLGRKIPVAQVPEIDWTHIPKDGLEYWKTIHQIIQENPVEERDRFVMAQLKFLGIEKGKPFNPTEEQKKILLEASKVGRAMAQSNDYTKRFTQPYWKGTNWKDAISVSLDQRSENYDELDERAAWFYEAITVSRGMKSTIPGFGQRYLVTYQDSDGNWLSGEHTYKLHVPANVPASNFWSTTVYDENNRLMIINDAGSPDISSRKNLKVNSDGSIDVYYGPKPVKGYENNWVQTNPGEGWFTYFRFYGPTEKMFDKSWTMGDIELVKLEHHHHHH”, the protein production was “not failed”.

In the case of “TIAFIVNKNLLHGSEIPKSWADLKTGKYKVSIGDVSTAAQAANGVLAASFAMKGDESNIEPGLALFTDLAKQKRLSLANPTIQTIEKGEIEVGVVWDFNGLSYRTKMAKPDDYVVLIPSDGSVISGYTTIINKYAKHPNAAKLAREYTFSDAGQ”, the protein production was “failed”.

For “MDRLPILKLGDCLLVTIQVELHDRLALTLQDDLTTMIANTGARGVLIDISALDIVDSFIARVLGNIAAMSRVLGAETMVVGMQPAVAITLVELGVTWQHMHTALSVERGLERLKVLIAERHTLRGHSPRGKRGGGVDGSRH”, the protein production was “failed”.

In the case of “MIDKREVLAPNRRSRQREEIVAEEKRYEVYFQPLLSGVEVKKSNEIKIVLPQQEYNRIEQGAKGTLRLQGTRYISFVPNSVAKLEHHHHHH”, the protein production was “not failed”.

For “MDNLETDRLILINYTLEMIQATINGTEALEKTSGYHVSPDWPGIDFFFYLPYVLENVKKDDKMIKWTRLVVLKTENKIIGEIGGQGNPDETGEIEIGYSIVPDYQNKGYMSEALISMIDWLEHQPVINRIFARCYEQNEASIQVLKHNHFVH”, the protein production was “failed”.

For “MGRAFEYRRAAKEKRWDKMSKVFPKLAKAITLAAKDGGSEPDTNAKLRTAILNAKAQNMPKDNIDAAIKRASSKEGNLSEITYEGKANFGVLIIMECMTDNPTRTIANLKSYFNKTQGASIVPNGSLEFMFNRKSVFECLKNEVENLKLSLEDLEFALIDYGLEELEEVEDKIIIRGDYNSFKLLNEGFESLKLPILKASLQRIATTPIELNDEQMELTEKLLDRIEDDDDVVALYTNIE”, the protein production was “failed”.

In the case of “MVKGKVINLHPTSSRFFKIGIKHYERGEIELAIERLKRALELDSKNIEIKFNLAGLLAQIGDFESSNKLLTELTTDNPEFYDSLFGLGCNFFEMGKLREAKHFLRRYLKLSNNTEFKEAAEDLLDFIETQQEFEREQKEMEKLTKLLERGNFLLENGRYEDAVKYFKMILAKDDTIFAARNNLSLAYFYMGEIEKAIHEAKKVLEIDKYNVYANCNLAFFYSTIGKTKELKKQLKTILELKTYDHKDKIKVLDTLIKLNQHAAIVDRAGELFEITKEPYFRHIQAISLYNTKQYIKAKKIWKDLKKNYNMPEIKIDYFLKKIDDVMKTFKKDTIDYFETGFGNLSKLEEKEFRSQLQKHIDMYFSQTFEENAKRIMDIIAENVKLNNEDKDAISQLLNALPLEKQRLNFTAIAAIVYYVYKKYLLRQKVKQKDVAERFGISQAVFSKWFKEFKGLLLGEDV”, the protein production was “failed”.

For “MRAADAPDAPLPEDRRNAPVWFAHDLEAPRCTALFPRLADRRPALVVVGGFLGSGKTTFLNNCIEYHRARERFVAVIQNEVGATGVDARLMGDGAEVLALDEGCVCCSLAGSLAGGIRAITADFTPEVILLETTGLANPLNLLAELDTLRDMVRLDAVVTVVDAANIVPTLRDSDIARDQIRGADIIVCNKCDTVDETGRAALRATLTGLNGRAALHETSFGRIHPSLFMALEGERPPRGLMPAPHGTHATHADEGFAAVRLFFSGTIDEAALAPLLQQCPGAPFRIKGIVRVTDDEAPRLVQCVGARCEVERLDGGFEGTPFLVFIGRNPDETALLEHWAALGATAEPPAPQAEADTQPAQATKSASGGQSSDATRGCHDHHLEHHHHHH”, the protein production was “failed”.

Source: a protein production outcome set (Wang et al. 2014)
